Laboratory results taken from PMC12906813, “The Transcription Factors NFYA1 and GBF3 Jointly Regulate CHS2 to Promote Tangeretin Accumulation and Cold Tolerance in Citrus”.
Where a chain is given by its changes, count along the chain named.

T1: CiGBF3 (Citrus ichangensis (Ichang papeda), UniProt V4U7K8 1-421)
T1 sequence: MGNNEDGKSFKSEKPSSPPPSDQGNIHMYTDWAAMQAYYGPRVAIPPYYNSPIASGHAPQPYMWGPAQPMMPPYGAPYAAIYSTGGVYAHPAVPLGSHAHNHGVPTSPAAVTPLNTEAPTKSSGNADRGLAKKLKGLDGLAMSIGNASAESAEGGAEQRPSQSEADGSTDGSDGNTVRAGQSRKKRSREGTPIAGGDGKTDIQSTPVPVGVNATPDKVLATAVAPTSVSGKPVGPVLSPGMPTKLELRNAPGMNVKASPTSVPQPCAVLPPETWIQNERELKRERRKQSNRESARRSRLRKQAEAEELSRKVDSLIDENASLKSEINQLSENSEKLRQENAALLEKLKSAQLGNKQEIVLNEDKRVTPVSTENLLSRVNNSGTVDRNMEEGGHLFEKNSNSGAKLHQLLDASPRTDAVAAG

B1: CHS2-mCACGTG probe (mProbe2) (dsDNA)
DNA 1: GCAGCCTAACACTATCTTTTTTGTCAGCATCTGCCCGT
DNA 2: ACGGGCAGATGCTGACAAAAAAGATAGTGTTAGGCTGC
B2: CHS2-CACGTG probe (Probe 2) (dsDNA)
DNA 1: GCAGCCTAACACTATCCACGTGGTCAGCATCTGCCCGT
DNA 2: ACGGGCAGATGCTGACCACGTGGATAGTGTTAGGCTGC
B3: CHS2-CCAAT probe (Probe 1) (dsDNA)
DNA 1: AAAGATCCATTTAATATGTTCCAATTACCGCATTACAAGTACTAAA
DNA 2: TTTAGTACTTGTAATGCGGTAATTGGAACATATTAAATGGATCTTT
B4: CHS2-mCCAAT probe (mProbe1) (dsDNA)
DNA 1: B3 DNA 1 with T20A, C21A, C22A, T25A
DNA 2: B3 DNA 2 with A22T, G25T, G26T, A27T

What was measured:
[1] = biological target: T1, CiGBF3; assay: EMSA; Chemiluminescent EMSA Kit (Beyotime GS009); buffer, salt, pH and temperature not stated; conditions: protein: recombinant; tags: His (pHMGWA vector); chain copies: 2; label: biotin; blunt
[2] = biological target: CiNFYA1 (Citrus ichangensis (Ichang papeda), UniProt A0A067ER94 1-365); assay: as above; conditions: protein: recombinant; tags: His (pHMGWA vector); label: biotin; blunt
CiNFYA1, sequence (A0A067ER94 entry or part of it): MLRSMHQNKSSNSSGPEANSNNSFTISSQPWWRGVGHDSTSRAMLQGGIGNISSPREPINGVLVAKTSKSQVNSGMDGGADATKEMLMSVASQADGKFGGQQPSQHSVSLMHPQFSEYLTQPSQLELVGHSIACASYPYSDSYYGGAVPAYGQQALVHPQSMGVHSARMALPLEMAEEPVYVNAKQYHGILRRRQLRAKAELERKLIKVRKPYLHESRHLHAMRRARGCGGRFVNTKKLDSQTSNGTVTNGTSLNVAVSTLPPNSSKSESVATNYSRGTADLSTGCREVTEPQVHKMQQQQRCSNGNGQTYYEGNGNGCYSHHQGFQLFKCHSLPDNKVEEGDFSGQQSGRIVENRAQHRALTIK

Binder | binding result [1] | binding result [2]
B1 | no binding | –
B2 | binds | –
B3 | – | binds
B4 | – | no binding
